Test results published in the Immune Epitope Database (IEDB).

Tests used:
HLA-A*02:01 [1] = assay: IEDB peptide-MHC binding, purified MHC/competitive/fluorescence; filed as Kd, often an IC50 or EC50 that approximates it; ≥ and ≤ were set here for values at or beyond the usual limits of such assays; conditions: source organism: Vibrio vulnificus YJ016
HLA-A*69:01 [2] = assay: as above; conditions: source organism: Vibrio vulnificus YJ016
HLA-A*26:01 [3] = assay: as above; conditions: source organism: Vibrio vulnificus YJ016
HLA-A*30:01 = assay: as above; conditions: source organism: Vibrio vulnificus YJ016
HLA-B*15:01 [4] = assay: IEDB peptide-MHC binding, purified MHC/direct/fluorescence; filed as Kd, often an IC50 or EC50 that approximates it; ≥ and ≤ were set here for values at or beyond the usual limits of such assays
HLA-B*27:05 = assay: as above
HLA-A*03:01 [5] = assay: as above
HLA-B*48:01 = assay: as above
HLA-B*46:01 = assay: as above
HLA-B*40:01 = assay: as above
HLA-B*51:01 = assay: as above
HLA-B*39:01 = assay: as above
HLA-B*07:02 = assay: as above; conditions: source organism: Vibrio vulnificus YJ016
HLA-A*11:01 = assay: as above
HLA-A*01:01 [6] = assay: as above
HLA-B*15:17 [7] = assay: as above
HLA-B*57:01 = assay: as above
HLA-B*18:01 = assay: as above
HLA-B*58:01 = assay: as above
HLA-A*31:01 = assay: as above
HLA-B*38:01 = assay: as above
HLA-A*01:01 [8] = assay: IEDB peptide-MHC binding, purified MHC/competitive/fluorescence; filed as Kd, often an IC50 or EC50 that approximates it; ≥ and ≤ were set here for values at or beyond the usual limits of such assays; conditions: source organism: Mycobacterium tuberculosis str. Haarlem
HLA-A*02:01 [9] = assay: IEDB peptide-MHC binding, purified MHC/direct/fluorescence; filed as Kd, often an IC50 or EC50 that approximates it; ≥ and ≤ were set here for values at or beyond the usual limits of such assays
HLA-A*69:01 [10] = assay: as above
HLA-B*15:01 [11] = assay: IEDB peptide-MHC binding, purified MHC/competitive/fluorescence; filed as Kd, often an IC50 or EC50 that approximates it; ≥ and ≤ were set here for values at or beyond the usual limits of such assays; conditions: source organism: Vibrio parahaemolyticus RIMD 2210633
HLA-A*03:01 [12] = assay: as above; conditions: source organism: Vibrio parahaemolyticus RIMD 2210633
HLA-B*15:17 [13] = assay: as above; conditions: source organism: Vibrio parahaemolyticus RIMD 2210633
HLA-B*08:02 = assay: IEDB peptide-MHC binding, purified MHC/direct/fluorescence; filed as Kd, often an IC50 or EC50 that approximates it; ≥ and ≤ were set here for values at or beyond the usual limits of such assays; conditions: source organism: Vibrio parahaemolyticus AQ3810
HLA-A*26:01 [14] = assay: as above; conditions: source organism: Vibrio parahaemolyticus AQ3810
[15] = source organism: Vibrio vulnificus YJ016
[16] = source organism: Mycobacterium tuberculosis
[17] = source organism: Vibrio parahaemolyticus
[18] = source organism: Vibrio parahaemolyticus AQ3810

IVAQGIAAL
Kd (HLA-A*02:01 [1]): 0.0181 µM | Kd (HLA-A*69:01 [2]): 0.0077 µM | Kd (HLA-A*26:01 [3]): ≥ 20 µM | Kd (HLA-A*30:01): ≥ 20 µM | Kd (HLA-B*15:01 [4]; [15]): 0.048 µM | Kd (HLA-B*27:05; [15]): ≥ 20 µM | Kd (HLA-A*03:01 [5]; [15]): ≥ 20 µM | Kd (HLA-B*48:01; [15]): ≥ 20 µM | Kd (HLA-B*46:01; [15]): 9 µM | Kd (HLA-B*40:01; [15]): ≥ 20 µM | Kd (HLA-B*51:01; [15]): ≥ 20 µM | Kd (HLA-B*39:01; [15]): 0.22 µM | Kd (HLA-B*07:02): 0.086 µM | Kd (HLA-A*11:01; [15]): ≥ 20 µM | Kd (HLA-A*01:01 [6]; [15]): ≥ 20 µM | Kd (HLA-B*15:17 [7]; [15]): 0.0475 µM | Kd (HLA-B*57:01; [15]): ≥ 20 µM | Kd (HLA-B*18:01; [15]): ≥ 20 µM | Kd (HLA-B*58:01; [15]): ≥ 20 µM | Kd (HLA-A*31:01; [15]): ≥ 20 µM | Kd (HLA-B*38:01; [15]): ≥ 20 µM

GPAGYTAAL
Kd (HLA-A*01:01 [8]): ≥ 20 µM | Kd (HLA-B*15:01 [4]; [16]): ≥ 20 µM | Kd (HLA-B*27:05; [16]): ≥ 20 µM | Kd (HLA-A*03:01 [5]; [16]): ≥ 20 µM | Kd (HLA-B*48:01; [16]): ≥ 20 µM | Kd (HLA-B*46:01; [16]): ≥ 20 µM | Kd (HLA-B*40:01; [16]): ≥ 20 µM | Kd (HLA-B*51:01; [16]): ≥ 20 µM | Kd (HLA-A*11:01; [16]): ≥ 20 µM | Kd (HLA-B*15:17 [7]; [16]): ≥ 20 µM | Kd (HLA-A*02:01 [9]; [16]): ≥ 20 µM | Kd (HLA-A*69:01 [10]; [16]): ≥ 20 µM | Kd (HLA-B*57:01; [16]): ≥ 20 µM | Kd (HLA-B*18:01; [16]): ≥ 20 µM | Kd (HLA-B*58:01; [16]): ≥ 20 µM | Kd (HLA-A*31:01; [16]): ≥ 20 µM | Kd (HLA-B*38:01; source organism: Mycobacterium tuberculosis str. Haarlem): ≥ 20 µM

RSTLANGWY
Kd (HLA-B*15:01 [11]): 0.0942 µM | Kd (HLA-A*03:01 [12]): 1.48 µM | Kd (HLA-B*15:17 [13]): 0.0012 µM | Kd (HLA-B*27:05; [17]): ≥ 20 µM | Kd (HLA-B*48:01; [17]): ≥ 20 µM | Kd (HLA-B*46:01; [17]): ≥ 20 µM | Kd (HLA-B*40:01; [17]): ≥ 20 µM | Kd (HLA-B*39:01; [18]): ≥ 20 µM | Kd (HLA-B*08:02): ≥ 20 µM | Kd (HLA-A*11:01; [17]): ≥ 20 µM | Kd (HLA-A*01:01 [6]; [17]): 0.274 µM | Kd (HLA-A*02:01 [9]; [17]): ≥ 20 µM | Kd (HLA-A*69:01 [10]; [17]): ≥ 20 µM | Kd (HLA-A*26:01 [14]): 0.59 µM | Kd (HLA-B*57:01; [17]): 0.268 µM | Kd (HLA-B*18:01; [17]): ≥ 20 µM | Kd (HLA-B*58:01; [17]): 0.059 µM | Kd (HLA-A*31:01; [17]): ≥ 20 µM | Kd (HLA-B*38:01; [18]): ≥ 20 µM
